{"source": "paper PMC9412859", "about": "(World Journal of Diabetes, 2022)", "origin": "cited, not measured here", "settings": "rats, oral"}
{"substance": "exenatide: GLP1-RA, here delivered orally in functionalised nanoparticles", "values": [{"measurement": "plasma exenatide level versus subcutaneous exenatide solution", "setting": "functionalised NPs", "result": "not significantly different"}]}
{"substance": "Exendin-4: GLP1-RA, here released from enteric-coated capsule containing pH responsive NPs", "values": [{"measurement": "time of maximum plasma concentration", "setting": "enteric-coated capsule containing pH responsive NPs", "result": 5, "unit": "h"}]}
